The record followed here is patent US20260242735A1.

Experiment [1] deals with human CD33 F44A (human) (UniProt P20138). In words: alanine scan, flow cytometry. In general terms: In flow cytometry, cells or beads pass a laser one at a time.
A further experiment has as its target human CD33 C101A (human) (UniProt P20138). In words: flow cytometry on HEK293-T, alanine scan.
The next experiment addresses human CD33 M120A (human) (UniProt P20138). In words: flow cytometry on HEK293-T, alanine scan.
Experiment [2] concerns the target human CD33 Y129A (human) (UniProt P20138). Nature of the experiment: flow cytometry on HEK293-T, alanine scan.
Experiment [3] deals with human CD33 variant Y129S (human) (UniProt P20138). In words: flow cytometry, IgG on cells expressing the mutant.
A further experiment concerns the target human CD33 K52F (human) (UniProt P20138). Nature of the experiment: flow cytometry, transfected cells, IgG.
The target in another experiment is human CD33 L134R (human) (UniProt P20138). In words: flow cytometry, transfected cells, IgG.
A further experiment addresses human CD33 C41A (human) (UniProt P20138). Nature of the experiment: alanine scan, flow cytometry.
Experiment [4] concerns the target human CD33 C212A (human) (UniProt P20138). Nature of the experiment: alanine scan, flow cytometry, HEK293-T.
Experiment [5] concerns the target human CD33 extracellular region F21L (human) (UniProt P20138). Nature of the experiment: BLI Octet, IgG captured on AHC, CD33 analyte.
The next experiment addresses human CD33 V231A (human) (UniProt P20138). In words: alanine scan, flow cytometry, HEK293-T.
In another experiment the target is human CD33 V138A (human) (UniProt P20138). In words: flow cytometry on HEK293-T, alanine scan.
Experiment [6] deals with human CD33 variant Y49S (human) (UniProt P20138). In words: flow cytometry, IgG on cells expressing the mutant.
For experiment [7], the target named is human CD33 C212A (human) (UniProt P20138). Nature of the experiment: alanine scan, flow cytometry.
Experiment [8] addresses human CD33 F44A (human) (UniProt P20138). In words: flow cytometry, alanine scan.
A further experiment concerns the target human CD33 Q24A (human) (UniProt P20138). In words: flow cytometry, alanine scan.
The target in the next experiment is human CD33 Q26A (human) (UniProt P20138). Nature of the experiment: flow cytometry, alanine scan.
A further experiment has as its target human CD33 V25A (human) (UniProt P20138). Nature of the experiment: flow cytometry, alanine scan.
In the next experiment the target is human CD33 L134A (human) (UniProt P20138). Nature of the experiment: alanine scan, flow cytometry, HEK293-T.
Experiment [9] has as its target human CD33 Y129A (human) (UniProt P20138). Nature of the experiment: alanine scan, flow cytometry, HEK293-T.

Sequence of human CD33 L134R (human) (P20138 18-364 L134R limits assumed): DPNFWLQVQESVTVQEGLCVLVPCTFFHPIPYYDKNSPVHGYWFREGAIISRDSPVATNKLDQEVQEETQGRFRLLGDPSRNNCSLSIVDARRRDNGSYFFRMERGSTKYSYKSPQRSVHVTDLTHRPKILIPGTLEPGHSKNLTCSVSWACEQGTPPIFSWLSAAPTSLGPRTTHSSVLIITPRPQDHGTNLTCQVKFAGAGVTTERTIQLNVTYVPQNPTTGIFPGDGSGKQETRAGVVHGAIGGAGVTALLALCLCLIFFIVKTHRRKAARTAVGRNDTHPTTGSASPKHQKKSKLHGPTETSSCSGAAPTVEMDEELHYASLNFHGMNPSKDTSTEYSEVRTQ
Sequence of human CD33 K52F (human) (P20138 18-364 K52F limits assumed): as the sequence (P20138 18-364 L134R limits assumed) above, with K35F, R117L counted along it
Sequence of human CD33 Y129A (human) (P20138 18-364 Y129A limits assumed): as the sequence (P20138 18-364 L134R limits assumed) above, with Y112A, R117L counted along it
Sequence of human CD33 F44A (human) (P20138 18-364 F44A limits assumed): as the sequence (P20138 18-364 L134R limits assumed) above, with F27A, R117L counted along it
Sequence of human CD33 C212A (human) (P20138 18-364 C212A limits assumed): as the sequence (P20138 18-364 L134R limits assumed) above, with R117L, C195A counted along it
Sequence of human CD33 Q24A (human) (P20138 18-364 Q24A limits assumed): as the sequence (P20138 18-364 L134R limits assumed) above, with Q7A, R117L counted along it
Sequence of human CD33 V231A (human) (P20138 18-364 V231A limits assumed): as the sequence (P20138 18-364 L134R limits assumed) above, with R117L, V214A counted along it
Sequence of human CD33 M120A (human) (P20138 18-364 M120A limits assumed): as the sequence (P20138 18-364 L134R limits assumed) above, with M103A, R117L counted along it
Sequence of human CD33 extracellular region F21L (human) (P20138 other isoform, or with tags, fused parts or gaps F21L F21L): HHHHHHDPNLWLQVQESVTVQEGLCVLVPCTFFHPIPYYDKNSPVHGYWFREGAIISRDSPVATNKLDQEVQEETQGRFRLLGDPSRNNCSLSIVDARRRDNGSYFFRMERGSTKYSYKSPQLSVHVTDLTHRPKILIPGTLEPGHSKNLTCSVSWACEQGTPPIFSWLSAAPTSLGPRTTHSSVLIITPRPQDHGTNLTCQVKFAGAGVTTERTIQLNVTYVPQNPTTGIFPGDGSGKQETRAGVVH
Sequence of human CD33 variant Y129S (human) (P20138 18-364 Y129S limits assumed): as the sequence (P20138 18-364 L134R limits assumed) above, with Y112S, R117L counted along it
Sequence of human CD33 L134A (human) (P20138 18-364 L134A limits assumed): as the sequence (P20138 18-364 L134R limits assumed) above, with R117A counted along it
Sequence of human CD33 C101A (human) (P20138 18-364 C101A limits assumed): as the sequence (P20138 18-364 L134R limits assumed) above, with C84A, R117L counted along it
Sequence of human CD33 variant Y49S (human) (P20138 18-364 Y49S limits assumed): as the sequence (P20138 18-364 L134R limits assumed) above, with Y32S, R117L counted along it
Sequence of human CD33 V138A (human) (P20138 18-364 V138A limits assumed): as the sequence (P20138 18-364 L134R limits assumed) above, with R117L, V121A counted along it
Sequence of human CD33 V25A (human) (P20138 18-364 V25A limits assumed): as the sequence (P20138 18-364 L134R limits assumed) above, with V8A, R117L counted along it
Sequence of human CD33 Q26A (human) (P20138 18-364 Q26A limits assumed): as the sequence (P20138 18-364 L134R limits assumed) above, with Q9A, R117L counted along it
Sequence of human CD33 C41A (human) (P20138 18-364 C41A limits assumed): as the sequence (P20138 18-364 L134R limits assumed) above, with C24A, R117L counted along it

B1: Refmab #3 (antibody, human IgG1, V domains shown)
VH: QVQLVQSGAEVKKPGSSVKVSCKASGYTFTDYNMHWVRQAPGQGLEWIGYIYPYNGGTGYNQKFKSKATITADESTNTAYMELSSLRSEDTAVYYCARGRPAMDYWGQGTLVTVSS
VL: DIQMTQSPSSLSASVGDRVTITCRASESVDNYGISFMNWFQQKPGKAPKLLIYAASNQGSGVPSRFSGSGSGTDFTLTISSLQPDDFATYYCQQSKEVPWTFGQGTKVEIK
Turning to B1, the Mean % WT Binding in the experiment with human CD33 F44A (human) [1] was 18.9 % WT; in the experiment with human CD33 C101A (human) it was 13.6 % WT binding; in the experiment with human CD33 M120A (human) it was 15.7 % WT binding; with human CD33 Y129A (human) [2], 15.6 % WT binding; in [3], 7.6 % of WT.

B2: Refmab #5 (antibody, human IgG1, V domains shown)
VH: QVQLVQSGAEVKKPGASVKVSCKASGYTFTNYDINWVRQAPGQGLEWIGWIYPGDGSTKYNEKFKAKATLTADTSTSTAYMELRSLRSDDTAVYYCASGYEDAMDYWGQGTTVTVSS
VL: DIQMTQSPSSLSASVGDRVTINCKASQDINSYLSWFQQKPGKAPKTLIYRANRLVDGVPSRFSGSGSGQDYTLTISSLQPEDFATYYCLQYDEFPLTFGGGTKVEIK
As to B2, the Mean % WT Binding amounted to 2.5% with human CD33 K52F (human) and 5% with human CD33 L134R (human).

B3: Refmab #1 (antibody, human IgG1, V domains shown)
VH: EVQLVQSGAEVKKPGSSVKVSCKASGYTITDSNIHWVRQAPGQSLEWIGYIYPYNGGTDYNQKFKNRATLTVDNPTNTAYMELSSLRSEDTAFYYCVNGNPWLAYWGQGTLVTVSS
VL: DIQLTQSPSTLSASVGDRVTITCRASESLDNYGIRFLTWFQQKPGKAPKLLMYAASNQGSGVPSRFSGSGSGTEFTLTISSLQPDDFATYYCQQTKEVPWSFGQGTKVEVK
Turning to B3, the Mean % WT Binding in the experiment with human CD33 C41A (human) turned out to be 14 % WT; in the experiment with human CD33 C212A (human) [4] it was 17.2%. The same molecule displayed a % WT binding in experiment [5] of 1.52%.

B4: Refmab #4 (antibody, human IgG1, V domains shown)
VH: QVQLVQSGAEVKKPGESVKVSCKASGYTFTNYGMNWVKQAPGQGLEWMGWINTYTGEPTYADKFQGRVTMTTDTSTSTAYMEIRNLGGDDTAVYYCARWSWSDGYYVYFDYWGQGTSVTVSS
VL: DIVMTQSPDSLTVSLGERTTINCKSSQSVLDSSTNKNSLAWYQQKPGQPPKLLLSWASTRESGIPDRFSGSGSGTDFTLTIDSPQPEDSATYYCQQSAHFPITFGQGTRLEIK
Consider B4, for which the Mean % WT Binding is 79.3% with human CD33 V231A (human), 54.1 % WT binding in the experiment with human CD33 V138A (human) and 9.8 % of WT in [6].

B5: Refmab #6 (antibody, human IgG1, V domains shown)
VH: QVQLQQPGAEVVKPGASVKMSCKASGYTFTSYYIHWIKQTPGQGLEWVGVIYPGNDDISYNQKFQGKATLTADKSSTTAYMQLSSLTSEDSAVYYCAREVRLRYFDVWGQGTTVTVSS
VL: EIVLTQSPGSLAVSPGERVTMSCKSSQSVFFSSSQKNYLAWYQQIPGQSPRLLIYWASTRESGVPDRFTGSGSGTDFTLTISSVQPEDLAIYYCHQYLSSRTFGQGTKLEIK
As for B5, the Mean % WT Binding with human CD33 C212A (human) [7] was 16.2 % WT binding; in the experiment with human CD33 F44A (human) [8] it was 14 % of WT; with human CD33 Q24A (human), 18.1 % of WT; in the experiment with human CD33 Q26A (human), 76.1 % of WT; with human CD33 V25A (human), 16.7 % of WT; with human CD33 L134A (human), 19.5 % WT binding. In addition, the Mean % WT Binding stood at 76.7 % WT binding in the experiment with human CD33 Y129A (human) [9], 2.5% with human CD33 K52F (human) and 1% in the experiment with human CD33 L134R (human).
